Source: patent US20160347843A1 (UNIVERSITY OF MASSACHUSETTS, published 2016)
Each block holds one binder with its values, some of them ahead of it.

Legend:
[1] = molecular target: T1, recombinant human sFlt1-14 with C-terminal 6-histidine tag, expressed in CHO cells (human, UniProt P17948 27-705); experiment: Octet QK (BLI), mAb captured on anti-murine biosensor, recombinant sFlt in solution
T1 construct: also called sFlt1_v2; sFlt1-e15a
Description: (§1) Affinity of antibodies was determined using an Octet QK (ForteBio) biomolecular interaction instrument. The Octet QK performs similarly to Biacore in the measurement of antibody affinity. The Octet QK uses biosensors to assess mass increases/decreases and determine rates of association and disassociation. Anti-murine or anti-human biosensors (ForteBio) were used to capture mAb in PBS (5 ug/ml) to saturation and unbound mAb was washed away. The coated biosensors were introduced into a solution containing recombinant human sFlt1-1 or sFlt1-14 at which time Kₒₙ was determined. The sensor was then introduced into a buffer solution and the Koff determined. Using Kₒₙ and Koff an affinity (KD) was calculated.

[2] = molecular target: T2, recombinant human sFlt1-1 with C-terminal 6-histidine tag, expressed in CHO cells (human, UniProt P17948 27-656); experiment: capture ELISA (human anti-sFlt capture, mouse mAb detection)
T2 construct: also called sFlt1_v1; sFlt1-i13
T2 sequence (P17948 other isoform, or with tags, fused parts or gaps): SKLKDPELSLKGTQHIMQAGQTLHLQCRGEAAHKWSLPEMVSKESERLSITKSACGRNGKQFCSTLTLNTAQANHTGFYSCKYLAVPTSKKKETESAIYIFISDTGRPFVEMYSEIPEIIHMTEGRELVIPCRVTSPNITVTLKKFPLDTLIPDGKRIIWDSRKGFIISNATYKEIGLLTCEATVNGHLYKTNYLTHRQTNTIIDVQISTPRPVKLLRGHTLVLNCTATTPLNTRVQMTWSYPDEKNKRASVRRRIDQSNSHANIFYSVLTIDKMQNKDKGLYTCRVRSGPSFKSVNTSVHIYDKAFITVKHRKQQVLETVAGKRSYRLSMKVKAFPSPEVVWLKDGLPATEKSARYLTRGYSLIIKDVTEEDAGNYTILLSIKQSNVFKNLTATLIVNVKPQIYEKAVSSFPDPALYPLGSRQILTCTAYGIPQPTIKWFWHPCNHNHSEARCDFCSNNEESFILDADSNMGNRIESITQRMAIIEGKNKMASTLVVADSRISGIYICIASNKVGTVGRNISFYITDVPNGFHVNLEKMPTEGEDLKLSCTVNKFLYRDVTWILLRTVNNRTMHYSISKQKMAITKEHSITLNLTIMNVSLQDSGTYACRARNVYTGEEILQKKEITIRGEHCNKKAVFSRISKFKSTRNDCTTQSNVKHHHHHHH
From the text: To measure the concentration of total sFlt and its isoforms, sFlt1-1 and sFlt1-14, in biological fluid, a capture ELISA was developed. Using an anti-sFlt human antibody to capture total sFlt and mouse antibodies 10 ugR#9, EX14-1 or 1C-KLH-18 to detect bound sFlt, allows the efficient capture of sFlt in biological fluid without high background or interference (FIG. 4). […] The sFlt1-specific mAb, 1C-KLH-18, detects recombinant human sFlt1-1, but not sFlt1-14 (FIG. 4A,B). Conversely, the sFlt1-14-specific mAb, EX14-1, detects recombinant human sFlt1-14, but not sFlt1-1 (FIG. 4A,B). In addition, each mAb detects a protein in human amniotic fluid (known from the literature to contain both sFlt isoforms; FIG. 4C) and no background is observed in normal human sera, which should contain very low levels of sFlt isoforms (FIG. 4D).
A capture ELISA format was utilized to quantify the total sFlt, sFlt1-1 or sFlt1-14 concentration in solution. Briefly, high-binding ELISA plates (Costar) were coated with 1 ug/ml of an anti-sFlt human antibody overnight at 4° C. This anti-sFlt antibody was selected to provide a capture reagent that bound both sFlt1-1 and sFlt1-14 at an epitope in their homologous regions without interfering with the availability of the epitopes bound by the antibodies of the present disclosure. […]

[3] = molecular target: T3, TRX-Exon14 (thioredoxin with 6-histidine tag fused upstream of the sFlt1-14-specific peptide) (human); experiment: ELISA of hybridoma cultures on coated TRX-Exon14
T3 construct: Bacterially expressed screening antigen coated on ELISA plates; not shown: N-terminal thioredoxin (TRX) with 6-histidine tag from pET32a(+)
T3 chain: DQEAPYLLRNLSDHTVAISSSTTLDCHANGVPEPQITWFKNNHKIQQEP
Description: (§2) To determine reactivity of unique antibodies with sFlt1-1 and sFlt1-14, ELISA was employed. As described above, TRX-Exon14 and GST-1C peptides were expressed and purified from bacteria. ELISA plates were coated with either GST-1C (FIG. 2A) or TRX-Exon14 (FIG. 2B), blocked with BSA and a series of dilutions of each hybridoma supernatant containing mAb was incubated on the coated plates. Bound antibody was detected with anti-mouse alkaline phosphatase secondary antibody and the interaction developed with PNPP. Plates were read using a Molecular Devices Emax plate reader and antibodies with the desired specificity and highest affinity were selected for final ELISA production. These included mouse mAbs EX14-1 to detect sFlt1-14 and 1C-KLH-18 to detect sFlt1. […] A human anti sFLT antibody with properties described above (under Quantitative Capture ELISA) was also used to minimize background in the ELISAs.
(§3) To determine reactivity of unique antibodies with sFlt1-1. sFlt1-14, TRX-Exon14 (SEQ ID NO. 40) and GST-1C (SEQ ID NO. 38) isoforms, ELISA plates were coated with either GST-1C or TRX-Exon14, blocked with BSA and a series of dilutions of each hybridoma supernatant containing mAb (or purified mAb) was incubated on the coated plates. Bound antibody was detected with anti-mouse alkaline phosphatase secondary antibody (Jackson ImmunoResearch) and the interaction developed with pNPP. […]

[4] = molecular target: T4, GST-1C (glutathione S-transferase fused upstream of the sFlt1-1-specific C-terminal peptide) (human, not fully specified); experiment: direct ELISA, plate coated with GST-1C, anti-mouse alkaline phosphatase and pNPP, OD405
T4 construct: Bacterially expressed screening antigen coated on ELISA plates; not shown: N-terminal glutathione S-transferase (GST) fusion partner
T4 chain: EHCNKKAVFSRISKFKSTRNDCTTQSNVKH
Description: as §2, §3

[5] = molecular target: T1, recombinant human sFlt1-14 with …; experiment: western blot, reducing SDS-PAGE, nitrocellulose, probed with 1C-KLH-18, HRP anti-mouse secondary
Description: Specificity of mAbs to sFIt1-14 and SFIt1-1 was investigated by western blot analysis on human amniotic fluid (FIG. 3). […] As standards, human recombinant sFlt1-1 or sFlt1-14 was loaded in final quantities of 200, 100 and 50 ng. After electrophoresis and transfer to nitrocellulose membranes, blots were blocked in 5% BSA and probed with EX14-1 (FIG. 3A), 1C-KLH-18 (FIG. 3B) or a commercially available mouse anti-VEGFR1 mAb (FIG. 3C) that recognized a single protein in amniotic fluid at the expected molecular weight (˜115 kDa) that corresponds to recombinant human sFlt1-14 and sFlt1-1, respectively. After washing, an HRP-labeled anti-mouse secondary antibody was used to detect bound mAb, developed and visualized using a Kodak Gel Logic imaging system. In addition, both mouse mAbs specifically recognized their recombinant sFlt1 isoform standards by western blot.

[6] = molecular target: T2, recombinant human sFlt1-1 with …; experiment: Octet QK (BLI), mAb captured on anti-murine biosensor, recombinant sFlt in solution
Description: as §1

[7] = molecular target: T4, GST-1C (glutathione S-transferase fused …); experiment: ELISA of hybridoma cultures on coated GST-1C
Description: as §2, §3

T1 sequence (P17948 other isoform, or with tags, fused parts or gaps): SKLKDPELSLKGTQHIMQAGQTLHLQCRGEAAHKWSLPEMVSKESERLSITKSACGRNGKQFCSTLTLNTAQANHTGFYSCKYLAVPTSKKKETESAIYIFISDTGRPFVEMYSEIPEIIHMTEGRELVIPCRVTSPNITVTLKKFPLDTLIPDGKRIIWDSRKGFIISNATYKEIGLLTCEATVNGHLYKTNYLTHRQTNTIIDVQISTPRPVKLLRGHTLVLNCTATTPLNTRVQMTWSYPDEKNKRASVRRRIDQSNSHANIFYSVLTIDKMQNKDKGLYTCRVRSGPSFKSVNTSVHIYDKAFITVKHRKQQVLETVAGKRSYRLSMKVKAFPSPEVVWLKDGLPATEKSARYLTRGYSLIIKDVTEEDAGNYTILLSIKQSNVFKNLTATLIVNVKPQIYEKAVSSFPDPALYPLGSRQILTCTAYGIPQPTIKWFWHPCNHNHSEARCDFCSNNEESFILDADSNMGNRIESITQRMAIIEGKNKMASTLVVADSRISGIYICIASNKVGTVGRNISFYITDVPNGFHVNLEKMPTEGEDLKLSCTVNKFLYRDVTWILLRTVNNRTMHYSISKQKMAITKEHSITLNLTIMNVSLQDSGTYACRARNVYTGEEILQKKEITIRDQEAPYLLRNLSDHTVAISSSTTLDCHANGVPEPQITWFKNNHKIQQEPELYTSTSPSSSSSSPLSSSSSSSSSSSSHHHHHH

Kd [1]: 39.5 nM
binding result [2]: no binding
binding result [3]: binds
binding result [4]: no binding
B1: mouse mAb EX14-1 (antibody, V domains shown)
VH: QIQLVQSGPELKKPGETVKISCTTSGYIFTTSGMSWVKQAPGKGLQWMGWINTYSGEPTYADDFKGRFAFSLETSASTAYLHINDLKNEDTATYFCARSRNNYEGFAYWGQGTLVTVSV
VL: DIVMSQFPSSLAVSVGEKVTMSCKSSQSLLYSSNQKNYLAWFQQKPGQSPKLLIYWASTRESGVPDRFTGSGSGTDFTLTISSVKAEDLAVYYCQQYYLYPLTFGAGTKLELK
notes: Murine hybridoma mAb with a kappa light chain (VK); also called sFlt1-14-specific mAb

binding result [5]: no binding (tested: 200 ng per lane)
Kd [6]: 4.3 nM
binding result [7]: binds
B2: mouse mAb 1C-KLH-18 (antibody, V domains shown)
VH: EVQLQQSGAELVRPGASVKLSCTASGVNIKDDYMNWVNQRPEQGLEWIGWIDPENGDTEYASKFQGKATITADTSSNTAYLQLSSLTSEDTAVYYCAAGYDYFPFVYWGQGTLVAVSA
VL: DVLMSQTPLSLPVSLGDQASISCRSSQNIVHSNGNTYLEWYLQKPGQSPKLLIHKVSNRFSGVPDRFSGSGSGTDFTLKISRVEAEDLGVYYCFQGSHVPFTFGSGTKLEKK
notes: Murine hybridoma mAb with a kappa light chain (VK); It was used as hybridoma supernatant or Protein A purified mAb; also called sFlt1-specific mAb; sFlt1-1-specific mAb
